A short description of this series: protein stability index of a GFP-peptide fusion (GPS, HEK-293T) (PSI 1-6); higher = more stable. The following applies: c terminus: a fixed tail appended.
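Further: lentivirally expressed fusions sorted by FACS into six bins by GFP to DsRed ratio, PSI derived from sequencing read proportions per bin multiplied by bin number.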

For YHTGKTPFVCPECGQPCSQKSGLI, the protein stability index (parent: IOH7272_62) was 1.66.
For LVAHQRYHTGKTPFVCPECGQPCS, for the setting “parent: IOH7272_61”, the protein stability index was 3.29.
For MYKLSSEQFHEAASKMESTIKPRR [CHCHD6 WT], where the note is “parent: IOH6589_29”, the protein stability index was 3.65.
Consider LTEHKRIHTGKKPHVCSLCGKAFY, for which, where the note is “parent: IOH7272_33”, the protein stability index worked out at 2.52.
As for IAKHLKGRLGKQCRERWHNHLNPE, the protein stability index (parent: IOH6886_19) turned out to be 1.82.
Regarding REQADSCREQLDIMNDLSNRVWSI, the protein stability index (parent: IOH6488_25) came out at 2.18.
Consider LFVTVTAVNLSVSTLPSLREEEEQ, for which the protein stability index (parent: IOH6461_40) came to 2.13.
Turning to KKFLTLGSKFRYSGRTQAQTRRAS, the protein stability index (parent: IOH6638_67) is 2.96.
SMQCKVILLDGSEYTCDVEKRSRG: for the setting “parent: IOH6638_19”, the protein stability index amounted to 2.79.
With FSPSQFLNFWNKQDTLELESPSLT, the protein stability index (parent: IOH6886_76) was 2.12.
Take SELGDYDPDECGSDYISEFRFAPN: the protein stability index (parent: IOH6638_40) was 1.93.
As for LDMDEGTLSFIVDGQYLGVAFRGL [SPSB4 WT], for the setting “parent: IOH6956_31”, the protein stability index amounted to 2.49.
For the protein MTKAQESLTLEDVAVDFTWEEWQF, the protein stability index (parent: IOH7272_1) turned out to be 3.04.
Regarding EHERAHRGEKPHGCSLCGKAFYKR, the protein stability index (parent: IOH7272_38) was 2.1.
Regarding QARLRDVSRREGALGWAPAAPPPL, where the note is “parent: IOH6801_33”, the protein stability index worked out at 3.31.
Turning to GPGFHAGTSALWRHLRSAHRRELE, where the note is “parent: IOH6801_14”, the protein stability index turned out to be 2.28.
On to SDYISEFRFAPNHTKELEDKVIEL, for which the protein stability index (parent: IOH6638_42) is 2.07.
For the protein YARTPTLDPDTMHARLRLSADRLT, the protein stability index (parent: IOH6488_45) is 2.62.
Regarding FRFAPNHTKELEDKVIELHKSHRG, the protein stability index (parent: IOH6638_43) is 2.13.
Take ELKTFRLKTRSWAGERSRRELCSR: the protein stability index (parent: IOH6456_93) turned out to be 3.35.
Turning to YQAGKPDALTKLEQGEPLWTLEDE, the protein stability index (parent: IOH7272_9) turned out to be 4.34.
In the case of GSKFRYSGRTQAQTRRASALIDRP, for the setting “parent: IOH6638_68”, the protein stability index stood at 3.09.
With AVNLSVSTLPSLREEEEQVRAHAP, the protein stability index (parent: IOH6461_41) was determined as 5.01.
As for VKKSCWTEEEDRIICEAHKVLGNR, under “parent: IOH6886_23”, the protein stability index is 3.18.
Turning to FPNRTDQQCQYRWLRVLNPDLVKG, the protein stability index (parent: IOH6886_11) came out at 2.01.
As for KSPIAPCSLDKRVILIFHCEFSSE, the protein stability index (parent: IOH6456_79) is 2.62.
Regarding FVDILESDLKDDDAVPPGMESLIS, the protein stability index (parent: IOH6456_46) turned out to be 3.07.
